Assay results as given in paper PMC3014015, “Structural Insights into Substrate Specificity in Variants of N-Acetylneuraminic Acid Lyase Produced by Directed Evolution” (Journal of Molecular Biology, 2010).

Columns and labels:
[1] = system: T1, CCCN(CCC)C(=O)[C@H](O)[C@H](O)C(O)CC(=O)C(=O)O; assay: steady-state kinetics (Km), coupled lactate dehydrogenase/NADH assay; format: biochemical, Escherichia coli
T1 construct: hexa-His-tagged protein

[2] = target: E192N variant of Escherichia coli N-acetylneuraminic acid lyase (Escherichia coli); assay: crystal structure; space group P2_(1), four crystallographically independent subunits (tetramer); crystals grown at 4 °C by sitting drop in 100 mM Tris-HCl pH 8.0-8.30, 200 mM NaCl, 18% (wt/vol) PEG 3350; some crystals soaked with 100 mM pyruvate and 70 mM THB
[3] = target: T2, N-acetylneuraminic acid lyase (Escherichia coli, UniProt P0A6L4, E192Q); assay: steady-state kinetics (Km), coupled lactate dehydrogenase/NADH assay; format: biochemical; details: read-out: Neu5Ac / Km
T2 construct: gene nanA; hexa-His-tagged protein
T2 sequence (P0A6L4 2-297 E192Q): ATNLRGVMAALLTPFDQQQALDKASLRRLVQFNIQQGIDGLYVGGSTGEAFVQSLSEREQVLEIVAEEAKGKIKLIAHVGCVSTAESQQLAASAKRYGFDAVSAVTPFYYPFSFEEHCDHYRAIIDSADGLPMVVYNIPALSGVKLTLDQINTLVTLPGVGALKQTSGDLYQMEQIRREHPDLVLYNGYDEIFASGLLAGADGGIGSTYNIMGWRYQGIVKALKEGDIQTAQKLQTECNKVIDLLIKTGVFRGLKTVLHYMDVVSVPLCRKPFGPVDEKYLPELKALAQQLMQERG

[4] = target: T3, N-acetylneuraminic acid lyase (Escherichia coli, UniProt P0A6L4, E192N); assay: coupled cleavage assay of purified enzyme; crystal soaking gave only the cleavage product pyruvate; format: biochemical
T3 construct: gene nanA; hexa-His-tagged protein
T3 sequence (P0A6L4 2-297 E192N): T2 sequence (P0A6L4 2-297 E192Q)

N-acetylneuraminic acid lyase (Escherichia coli K-12; E192P)
Km [1]: 0.2 ± 0.02 mM | kcat [1]: 0.817 ± 0.0167 s⁻¹ | kcat/Km [1]: 4330 M⁻¹ s⁻¹

E192N variant of Escherichia coli N-acetylneuraminic acid lyase (enzyme)
stoichiometry N [2]: 4

N-acetylneuraminic acid lyase (Escherichia coli K-12; E192Q)
Km [1]: 0.7 ± 0.05 mM | kcat [1]: 2.83 ± 0.0667 s⁻¹ | kcat/Km [1]: 4170 M⁻¹ s⁻¹

N-Acetylneuraminic acid [Neu5Ac]
Km [3]: 3.5 ± 0.5 mM

N-acetylneuraminic acid lyase (Escherichia coli K-12; E192M)
Km [1]: 0.2 ± 0.03 mM | kcat [1]: 1.17 ± 0.05 s⁻¹ | kcat/Km [1]: 5330 M⁻¹ s⁻¹

CCCN(CCC)C(=O)[C@H](O)[C@H](O)C(O)CC(=O)C(=O)O (stereo partly drawn) [DPAH, (5R,6R)-7-(dipropylamino)-4,5,6-trihydroxy-2,7-dioxoheptanoic acid]
coupled cleavage assay of purified enzyme; crystal soaking gave only the cleavag [4]: confirmed that the E192N enzyme had the highest activity for DPAH

N-acetylneuraminic acid lyase (Escherichia coli K-12; E192F)
Km [1]: 0.3 ± 0.02 mM | kcat [1]: 1.47 ± 0.0333 s⁻¹ | kcat/Km [1]: 5170 M⁻¹ s⁻¹
